Paper doi:10.1101/2021.07.02.450866
Blank lines part the entries; values can stand above or below the substance they belong to.

How the values were obtained:
[1] = biological target: CE3-HA-B*27:05 (HLA-B*27:05 heavy chain) (human); test: non-reducing SDS-PAGE and Western blot of precipitated surface class I
[2] = biological target: GFP-K^b (free heavy chain of H-2K^b with N-terminal monomeric GFP) (murine) (UniProt P01901); test: single-molecule co-tracking
[3] = biological target: HA-K^b (free heavy chain of H-2K^b with N-terminal HA tag) (murine) (UniProt P01901); test: FRAP
[4] = biological target: isolated, soluble α3 domain of H-2K^b (recombinant) (murine) (UniProt P01901); test: SEC
[5] = biological target: isolated, soluble α3 domain of H-2K^b (recombinant) (murine) (UniProt P01901); test: native MS

stoichiometry N [1]: 2
Substance: CE3-HA-B*27:05 (HLA-B*27:05 heavy chain) (natural protein)

fraction of co-locomoting molecules [2]: 3% | half-life (t½) [2]: 0.22 s | koff [2]: 3.1 s⁻¹ | stoichiometry N [2]: 2
Substance: GFP-K^b (free heavy chain of H-2K^b with N-terminal monomeric GFP) (from UniProt P01901 22-369) (natural protein)

half-time of dissociation [3]: 140 s
Substance: K^b-GFP (free heavy chain of H-2K^b with C-terminal GFP) (from UniProt P01901 22-369) (natural protein)

Kd [4]: 10 to 20 µM | stoichiometry N [4]: 2 | stoichiometry N [5]: 2
Substance: isolated, soluble α3 domain of H-2K^b (recombinant) (from UniProt P01901 205-295) (domain or fragment)
